Experimental data from patent US20200332015A1 (NAMAB THERAPEUTICS, published 2020).
Where “and” joins values, the source holds several entries; their conditions need not be identical. Identical values can stand only once. Like-named read-outs stand apart in the source and are kept apart here.

What was measured:
[1] = biological target: T1, mouse Fc-tagged mouse CD137 (R&D Systems, cat. 937-4B-050) (mouse, UniProt P20334 24-187); experiment: SPR T200, antigen-Fc captured, molecule as analyte
T1 construct: also called mouse CD137-Fc chimeric protein
T1 sequence (looked up): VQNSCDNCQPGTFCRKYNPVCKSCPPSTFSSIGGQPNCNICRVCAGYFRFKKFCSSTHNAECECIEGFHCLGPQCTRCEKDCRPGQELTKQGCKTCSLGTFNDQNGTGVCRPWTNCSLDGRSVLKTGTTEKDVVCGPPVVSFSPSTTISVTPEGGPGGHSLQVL
Procedure, shortened: (§1)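 Biacore T200: anti-Fc antibody amine-coupled on CM5 chip captures chimeras of different species. Molecules injected as three-fold dilutions (0.12-90 nM) for 3 min, dissociation 10 min, 3 M MgCl₂ regeneration. Apparent ka, kd and KD from 1:1 Langmuir fit.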

[2] = biological target: T2, Fc tagged human CD137 (R&D Systems, cat. 838-4B-100) (human, UniProt Q07011 24-186); experiment: SPR T200, antigen-Fc captured, molecule as analyte
T2 construct: also called CD137 Fc chimera; human CD137-Fc chimeric protein
Procedure, shortened: as §1

[3] = biological target: T3, cynomolgus monkey Fc-tagged CD137 (R&D Systems, cat. 9324-4B-100) (cynomolgus monkey, UniProt A9YYE7 24-186); experiment: SPR T200, antigen-Fc captured, molecule as analyte
T3 construct: also called cynomolgus CD137-Fc chimeric protein
Procedure, shortened: as §1

[4] = biological target: human PDL1-Fc chimeric protein (human, UniProt Q9NZQ7 19-238, limits assumed); experiment: SPR T200, antigen-Fc captured, molecule as analyte
Procedure, shortened: as §1

[5] = biological target: T4, human CD137 expressed on Jurkat cells (human, UniProt Q07011 24-255); experiment: cell-based or functional assay
[6] = biological target: T4, human CD137 expressed on Jurkat cells; experiment: cell-based or functional assay; remark: listed apart in the source
[7] = biological target: T4, human CD137 expressed on Jurkat cells; experiment: cell-based or functional assay; remark: listed apart in the source
[8] = biological target: T4, human CD137 expressed on Jurkat cells; experiment: cell-based or functional assay; remark: listed apart in the source
[9] = biological target: T4, human CD137 expressed on Jurkat cells; experiment: cell-based or functional assay; remark: listed apart in the source
[10] = biological target: T4, human CD137 expressed on Jurkat cells; experiment: cell-based or functional assay; remark: listed apart in the source
[11] = biological target: T4, human CD137 expressed on Jurkat cells; experiment: cell-based or functional assay; remark: listed apart in the source
[12] = biological target: T4, human CD137 expressed on Jurkat cells; experiment: cell-based or functional assay; remark: listed apart in the source

T3 sequence (A9YYE7 entry or part of it): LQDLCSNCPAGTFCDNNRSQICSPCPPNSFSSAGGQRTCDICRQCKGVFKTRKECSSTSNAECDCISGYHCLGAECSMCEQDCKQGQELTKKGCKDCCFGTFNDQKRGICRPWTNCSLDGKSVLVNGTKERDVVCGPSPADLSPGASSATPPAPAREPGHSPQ

B1: PRO951 (38-27-C05 sc02 scDb-i/33-03-G02 sc01 scDb-o) (bispecific antibody)
chain: DIQMTQSPSSLSASVGDRVTITCQASQSINDYLAWYQQKPGKAPKLLIYKASTLASGVPSRFSGSGSGTDFTLTISSLQPEDFATYYCQQGYIITDIDNVFGTGTKVTVLGGGGGSEVQLVESGGGLVQPGGSLRLSCAASGFSFNNDYDMCWVRQAPGKGLEWIGCIDTGDGSTYYASWAKGRFTISRDNSKNTVYLQMNSLRAEDTAVYYCAREAASSSGYGMGYFDLWGQGTLVTVSSGGGGSGGGGSGGGGSGGGGSIQMTQSPSSLSASVGDRVTITCQSSQSVYDNNWLAWYQQKPGKAPKLLIYRASNLASGVPSRFSGSGSGTDFTLTISSLQPEDFATYYCQGTYLSSNWYWAFGTGTKVTVLGGGGGSQVQLQESGPGLVKPSETLSLTCKVSGFSFSSGYDMCWIRQPPGKGLEWIGCVVAGSVDITYYASWAKGRVTISVDSSKNQFSLKLSSVTAADTAVYYCARKDAYSDAFNLWGQGTLVTVSS
notes: scDb, PDL1 x CD137
- binding result [1]: no binding (tested: 0.12-90 nM)
- Kd [2]: 4.2 nM
- koff [2]: 0.0063 s⁻¹
- kon [2]: 1.5e+06 M⁻¹ s⁻¹
- Kd [3]: 6.9 nM
- koff [3]: 0.01 s⁻¹
- kon [3]: 1.5e+06 M⁻¹ s⁻¹
- Kd [4]: 0.07 nM
- koff [4]: 0.00015 s⁻¹
- kon [4]: 2.2e+06 M⁻¹ s⁻¹
- max. activation, NF-kB reporter gene, CHO-PD-L1 [5]: 432%
- rel. IC50 (urelumab/test), NF-kB reporter gene, CHO-PD-L1 [5]: 2.35 ratio
- EC50 NFkB-luciferase, CHO-PDL1 cells [6]: 0.0337 µg/mL

B2: urelumab (antibody, V domains shown)
VH: QVQLQQWGAGLLKPSETLSLTCAVYGGSFSGYYWSWIRQSPEKGLEWIGEINHGGYVTYNPSLESRVTISVDTSKNQFSLKLSSVTAADTAVYYCARDYGPGNYDWYFDLWGRGTLVTVSS
VL: EIVLTQSPATLSLSPGERATLSCRASQSVSSYLAWYQQKPGQAPRLLIYDASNRATGIPARFSGSGSGTDFTLTISSLEPEDFAVYYCQQRSNWPPALTFGGGTKVEIK
- EC50 NFkB-luciferase, HCC827 with IFNy stimulation [7]: 0.0528 µg/mL
- EC50 NFkB-luciferase, HCC827 without IFNy stimulation [7]: 0.0475 µg/mL
- EC50 NFkB-luciferase, HCC827 without IFNy [8]: 0.212 µg/mL and 0.11 µg/mL and 0.112 µg/mL
- EC50 NFkB-luciferase, CHO-PDL1 cells, 6 h [9]: 0.0565 µg/mL
- EC50 NFkB-luciferase, CHO-PDL1 cells, 6 h, + HSA [9]: 0.0777 µg/mL
- Top of curve fit, NFkB-luciferase, CHO-PDL1 cells, 6 h, + HSA [9]: 106
- EC50 NFkB-luciferase, HCC827 with IFNy [10]: 0.114 µg/mL and 0.145 µg/mL and 0.108 µg/mL
- EC50 NFkB-luciferase, CHO-PDL1 cells, 24 h [11]: 0.0466 µg/mL
- EC50 NFkB-luciferase, CHO-PDL1 cells, 24 h, + HBA (so in the source) [11]: 0.0782 µg/mL
- Top of curve fit, NFkB-luciferase, CHO-PDL1 cells, 24 h, + HBA (so in the source) [11]: 90.5
- EC50 NFkB-luciferase, CHO-PDL1 cells [6]: 0.0791 µg/mL
- EC50 NFkB-luciferase, CHO-PDL1 cells [12]: 0.0865 µg/mL and 0.0795 µg/mL and 0.104 µg/mL
